Experimental data: patent US20120316071A1

Key:
[1] = biological target: rHuman EGF R/Fc Chimera, CF (R&D Systems Cat#344-ER) (human) (UniProt P00533); experiment: ECL multispot (MSD), 20 nM Fab
[2] = biological target: rHuman ErbB2/Fc Chimera, CF (R&D Systems Cat#1129-ER) (human) (UniProt P04626); experiment: ECL multispot (MSD), 20 nM Fab
[3] = biological target: rHuman CD44/Fc Chimera (human) (UniProt P16070); experiment: ECL (MSD) multispot assay, antigen spotted; blank spot of this row 236
[4] = biological target: rHuman Erythropoietin R/Fc Chimera (human) (UniProt P19235); experiment: as above
[5] = biological target: rHuman HGF R/c-MET/Fc Chimera (human) (UniProt P08581); experiment: as above
[6] = biological target: rHuman IGF-1 sR (insulin-like growth factor-1 soluble receptor) (human) (UniProt P08069); experiment: as above
[7] = biological target: rHuman Notch-1/Fc Chimera (human) (UniProt P46531); experiment: as above
[8] = biological target: rHuman Erythropoietin R/Fc Chimera, CF (R&D Systems Cat#963-ER) (human) (UniProt P19235); experiment: ECL (MSD) multispot binding assay, antigen spotted on plate, 20 nM Fab
[9] = biological target: Recombinant Human DLL4 (R&D Systems Cat#1506-D4/CF) (human) (UniProt Q9NR61); experiment: ECL multispot (MSD) binding assay, antigens spotted on plate, 20 nM Fab
[10] = biological target: rHuman CD44/Fc Chimera, CF (R&D Systems Cat#3660-CD) (human) (UniProt P16070); experiment: as above
[11] = biological target: rHuman IGF-1 sR, (IGF-1 sR), CF (R&D Systems Cat#391-GR) (human) (UniProt P08069); experiment: as above
[12] = biological target: rHuman Notch-1/Fc Chimera, CF (R&D Systems Cat#3647-TK) (human) (UniProt P46531); experiment: as above
[13] = biological target: rHuman CD44/Fc Chimera, CF (R&D Systems Cat#3660-CD) (human) (UniProt P16070); experiment: ECL (MSD) multispot binding assay, antigen spotted on plate, 20 nM Fab
[14] = biological target: rHuman HGF R/c-MET/Fc Chimera, CF (R&D Systems Cat#358-MT/CF) (human) (UniProt P08581); experiment: as above
[15] = biological target: rHuman P-Cadherin/Fc Chimera, CF (R&D Systems Cat#861-PC) (human) (UniProt P22223); experiment: as above
[16] = biological target: rHuman Erythropoietin R/Fc Chimera (human) (UniProt P19235); experiment: ECL (MSD) multispot assay, antigen spotted; blank spot of this row 284
[17] = biological target: rHuman HGF R/c-MET/Fc Chimera (human) (UniProt P08581); experiment: as above
[18] = biological target: rHuman IGF-1 sR (insulin-like growth factor-1 soluble receptor) (human) (UniProt P08069); experiment: as above
[19] = biological target: rHuman HGF R/c-MET/Fc Chimera, CF (R&D Systems Cat#358-MT/CF) (human) (UniProt P08581); experiment: ECL multispot (MSD) binding assay, antigens spotted on plate, 20 nM Fab
[20] = biological target: rHuman CD44/Fc Chimera (human) (UniProt P16070); experiment: ECL (MSD) multispot assay, antigen spotted; blank spot of this row 223
[21] = biological target: rHuman Erythropoietin R/Fc Chimera (human) (UniProt P19235); experiment: as above
[22] = biological target: rHuman HGF R/c-MET/Fc Chimera (human) (UniProt P08581); experiment: as above
[23] = biological target: rHuman IGF-1 sR (insulin-like growth factor-1 soluble receptor) (human) (UniProt P08069); experiment: as above
[24] = biological target: rHuman HGF R/c-MET/Fc Chimera (human) (UniProt P08581); experiment: ECL (MSD) multispot assay, antigen spotted; blank spot of this row 424
[25] = biological target: rHuman IGF-1 sR (insulin-like growth factor-1 soluble receptor) (human) (UniProt P08069); experiment: as above
[26] = biological target: rHuman CD44/Fc Chimera, CF (R&D Systems Cat#3660-CD) (human) (UniProt P16070); experiment: ECL multispot (MSD) binding assay, antigen spotted on plate, Fab in solution; blank spot 213
[27] = biological target: rHuman EGF R/Fc Chimera, CF (R&D Systems Cat#344-ER) (human) (UniProt P00533); experiment: as above
[28] = biological target: rHuman ErbB2/Fc Chimera, CF (R&D Systems Cat#1129-ER) (human) (UniProt P04626); experiment: as above
[29] = biological target: rHuman HGF R/c-MET/Fc Chimera, CF (R&D Systems Cat#358-MT/CF) (human) (UniProt P08581); experiment: as above
[30] = biological target: rHuman IGF-1 sR, CF (R&D Systems Cat#391-GR) (human) (UniProt P08069); experiment: as above
[31] = biological target: rHuman Notch-1/Fc Chimera, CF (R&D Systems Cat#3647-TK) (human) (UniProt P46531); experiment: as above
[32] = biological target: rHuman P-Cadherin/Fc Chimera, CF (R&D Systems Cat#861-PC) (human) (UniProt P22223); experiment: as above
[33] = biological target: rHuman CD44/Fc Chimera, CF (R&D Systems Cat#3660-CD) (human) (UniProt P16070); experiment: ECL multispot (MSD) binding assay, antigen spotted on plate, Fab in solution; blank spot 240
[34] = biological target: rHuman EGF R/Fc Chimera, CF (R&D Systems Cat#344-ER) (human) (UniProt P00533); experiment: as above
[35] = biological target: rHuman ErbB2/Fc Chimera, CF (R&D Systems Cat#1129-ER) (human) (UniProt P04626); experiment: as above
[36] = biological target: rHuman HGF R/c-MET/Fc Chimera, CF (R&D Systems Cat#358-MT/CF) (human) (UniProt P08581); experiment: as above
[37] = biological target: rHuman IGF-1 sR, CF (R&D Systems Cat#391-GR) (human) (UniProt P08069); experiment: as above
[38] = biological target: rHuman Notch-1/Fc Chimera, CF (R&D Systems Cat#3647-TK) (human) (UniProt P46531); experiment: as above
[39] = biological target: rHuman P-Cadherin/Fc Chimera, CF (R&D Systems Cat#861-PC) (human) (UniProt P22223); experiment: as above
[40] = biological target: rHuman CD44/Fc Chimera, CF (R&D Systems Cat#3660-CD) (human) (UniProt P16070); experiment: ECL multispot (MSD) binding assay, antigen spotted on plate, Fab in solution; blank spot 424
[41] = biological target: rHuman EGF R/Fc Chimera, CF (R&D Systems Cat#344-ER) (human) (UniProt P00533); experiment: as above
[42] = biological target: rHuman ErbB2/Fc Chimera, CF (R&D Systems Cat#1129-ER) (human) (UniProt P04626); experiment: as above
[43] = biological target: rHuman HGF R/c-MET/Fc Chimera, CF (R&D Systems Cat#358-MT/CF) (human) (UniProt P08581); experiment: as above
[44] = biological target: rHuman IGF-1 sR, CF (R&D Systems Cat#391-GR) (human) (UniProt P08069); experiment: as above
[45] = biological target: rHuman Notch-1/Fc Chimera, CF (R&D Systems Cat#3647-TK) (human) (UniProt P46531); experiment: as above
[46] = biological target: rHuman P-Cadherin/Fc Chimera, CF (R&D Systems Cat#861-PC) (human) (UniProt P22223); experiment: as above
[47] = biological target: Recombinant Human DLL4 (R&D Systems Cat#1506-D4/CF) (human) (UniProt Q9NR61); experiment: ECL multispot (MSD), 20 nM Fab
[48] = biological target: rHuman CD44/Fc Chimera, CF (R&D Systems Cat#3660-CD) (human) (UniProt P16070); experiment: ECL multispot (MSD), 20 nM Fab
[49] = biological target: rHuman Notch-1/Fc Chimera, CF (R&D Systems Cat#3647-TK) (human) (UniProt P46531); experiment: ECL multispot (MSD), 20 nM Fab

Substance: Fab VH3-23_IGHD2-21*01>3_IGHJ6*01 H100E/S108P/Y113G (EPG) Y109L & V2-13_IGLJ2*01
- ECL signal ratio (column head gives no unit) [1]: 2.2
- ECL signal ratio (column head gives no unit) [2]: 2.1

Substance: Fab VH5-51_IGHD5-18*01>3_IGHJ4*01 G100K/G104T S84V & V3-4_IGLJ1*01
- ECL signal [3]: 577
- ECL signal [4]: 484
- ECL signal [5]: 811
- ECL signal [6]: 914
- ECL signal [7]: 505

Substance: Fab VH3-23_IGHD2-21*01>3_IGHJ6*01 H100E/S108P/Y113G/Y111E & V2-13_IGLJ2*01
- ECL signal/blank ratio [8]: 2.9

Substance: Fab VH3-23_IGHD2-21*01>3_IGHJ6*01 H100E/S108P/Y113G Y110W & V2-13_IGLJ2*01
- ECL multispot signal (ratio to blank; column not labelled) [9]: 3.9
- ECL multispot signal (ratio to blank; column not labelled) [10]: 2.1
- ECL multispot signal (ratio to blank; column not labelled) [11]: 2.3
- ECL multispot signal (ratio to blank; column not labelled) [12]: 3.2

Substance: Fab VH3-23_IGHD2-21*01>3_IGHJ6*01 H100E/S108P/Y113G/Y111W & V2-13_IGLJ2*01
- ECL signal/blank ratio [13]: 3.4

Substance: Fab VH3-23_IGHD2-21*01>3_IGHJ6*01 H100E/S108P/Y113G/Y110R & V2-13_IGLJ2*01
- ECL signal/blank ratio [14]: 3.9
- ECL signal/blank ratio [15]: 3.3

Substance: Fab VH5-51_IGHD5-18*01>3_IGHJ4*01 G100K/G104T D109A & V3-4_IGLJ1*01
- ECL signal [16]: 612
- ECL signal [17]: 846
- ECL signal [18]: 967

Substance: Fab VH3-23_IGHD2-21*01>3_IGHJ6*01 H100E/S108P/Y113G Y110N & V2-13_IGLJ2*01
- ECL multispot signal (ratio to blank; column not labelled) [19]: 2.3

Substance: Fab VH5-51_IGHD5-18*01>3_IGHJ4*01 G100K/G104T S84L & V3-4_IGLJ1*01
- ECL signal [20]: 545
- ECL signal [21]: 458
- ECL signal [22]: 933
- ECL signal [23]: 908

Substance: Fab VH5-51_IGHD5-18*01>3_IGHJ4*01 G100K/G104T & V3-4_IGLJ1*01
- ECL signal [24]: 838
- ECL signal [25]: 877
- ECL signal [26]: 540
- ECL signal [27]: 768
- ECL signal [28]: 1100
- ECL signal [29]: 867
- ECL signal [30]: 781
- ECL signal [31]: 437
- ECL signal [32]: 226
- ECL signal [33]: 633
- ECL signal [34]: 915
- ECL signal [35]: 1070
- ECL signal [36]: 936
- ECL signal [37]: 964
- ECL signal [38]: 507
- ECL signal [39]: 346
- ECL signal [40]: 579
- ECL signal [41]: 852
- ECL signal [42]: 1100
- ECL signal [43]: 838
- ECL signal [44]: 877
- ECL signal [45]: 543
- ECL signal [46]: 319

Substance: Fab VH3-23_IGHD2-21*01>3_IGHJ6*01 H100E/S108P/Y113G (EPG) Y109W & V2-13_IGLJ2*01
- ECL signal ratio (column head gives no unit) [47]: 4.3
- ECL signal ratio (column head gives no unit) [48]: 2.4

Substance: Fab VH3-23_IGHD2-21*01>3_IGHJ6*01 H100E/S108P/Y113G (EPG) & V2-13_IGLJ2*01
- ECL signal ratio (column head gives no unit) [47]: 2.3
- ECL signal ratio (column head gives no unit) [49]: 2.3
